# T1: e/g heterodimer of the Y. lipolytica F1Fo-ATP synthase (subunits e and g) (Yarrowia lipolytica, UniProt B5FVG3 1-90; B5FVB8 1-138)
# T1 construct: subunit e of the mitochondrial F1Fo-ATP synthase, Yarrowia lipolytica; predicted N-terminal trans-membrane helix with a GxxxG motif and a hydrophilic C terminus; subunit g of the mitochondrial F1Fo-ATP synthase, Yarrowia lipolytica; N-terminal matrix domain and predicted C-terminal trans-membrane helix with a GxxxG motif; the two subunits are not resolved from each other in the 6.2 Å map; also …
# T1 sequence (looked up) 1: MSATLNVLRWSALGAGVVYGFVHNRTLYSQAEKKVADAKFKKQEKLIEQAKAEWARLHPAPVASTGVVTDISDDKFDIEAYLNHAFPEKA
# T1 sequence (looked up) 2: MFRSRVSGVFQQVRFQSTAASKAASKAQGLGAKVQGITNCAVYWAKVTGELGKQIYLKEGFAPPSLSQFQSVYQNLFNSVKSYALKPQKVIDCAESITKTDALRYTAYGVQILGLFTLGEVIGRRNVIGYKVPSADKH
# T2: Y. lipolytica F1Fo-ATP synthase subunit a (Yarrowia lipolytica, UniProt Q36258 7-255)
# T2 construct: subunit a of the mitochondrial F1Fo-ATP synthase, Yarrowia lipolytica; mitochondrially encoded; helices aH1 to aH6; source: endogenous, purified from Y. lipolytica mitochondria as part of 2YLF1Fo
# T2 sequence (looked up): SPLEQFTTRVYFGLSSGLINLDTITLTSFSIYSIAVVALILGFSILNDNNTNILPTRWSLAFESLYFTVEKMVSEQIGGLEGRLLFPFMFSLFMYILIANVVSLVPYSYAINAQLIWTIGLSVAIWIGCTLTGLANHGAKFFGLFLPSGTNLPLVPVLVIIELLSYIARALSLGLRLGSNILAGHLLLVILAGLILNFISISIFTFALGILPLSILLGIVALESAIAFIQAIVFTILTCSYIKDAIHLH
# B1: Y. lipolytica F1Fo-ATP synthase subunit OSCP (natural protein, Yarrowia lipolytica, UniProt Q6C9B1 25-214, looked up)
# chain: APVKVPVQLFGLDGTYATALYTAAAKESDLSKTEGSLAKLRDVFAQQPEVAQIVSNPTLSHEDKQTVVNVLSQAVGGDKTLTNFLTVISDNNRLALIPGIIEKFETLVNASKGLVEATVTSASELDKKTVNRIQAAIAGSSFVGEGELKLNLKVNPDILGGLIVEVAERTVDVSVASKIARLNHVLSEPI
# notes: peripheral stalk subunit OSCP of the mitochondrial F1Fo-ATP synthase, Yarrowia lipolytica; source: endogenous, purified from Y. lipolytica mitochondria as part of 2YLF1Fo
# B2: Y. lipolytica F1Fo-ATP synthase subunit b (natural protein, Yarrowia lipolytica, UniProt Q6C105 15-217, looked up)
# chain: SNQVDPKVKATSILDSIPGNNVLSKTGVLATGVLGSIYAISNELYIVNDESIVLGVFAAFVVVVAKLGGPGYTSWADGYIENMRNILNTTRDKHTDAVKERIGDVSKLKDVVKTTQDLFAVSKDTVKLEAEVFETKQQVVLAAEAKSVLDSWVRYENSVRQREQKLLTETVISKIEKDLKDPKFQQKILQQSVEDIEKLFAKA
# notes: subunit b of the mitochondrial F1Fo-ATP synthase, Yarrowia lipolytica; two trans-membrane helices at its N terminus; also called peripheral stalk subunit b; source: endogenous, purified from Y. lipolytica mitochondria as part of 2YLF1Fo
# B3: Y. lipolytica F1Fo-ATP synthase subunit h (natural protein, Yarrowia lipolytica, UniProt Q6C2V6 20-108, looked up)
# chain: NLISEAYTREVRAFKAPKLSAKDAEGQVKPWSAPSAPKPPVVEGADAAELQAYAEAPVDVEGQTNSKSASPQANDEDWLAFEEEEGVAV
# notes: peripheral stalk subunit h of the mitochondrial F1Fo-ATP synthase, Yarrowia lipolytica; also called equivalent of bovine F6; source: endogenous, purified from Y. lipolytica mitochondria as part of 2YLF1Fo
# B4: Y. lipolytica F1Fo-ATP synthase subunit d (natural protein, Yarrowia lipolytica, UniProt Q6CFH9 1-176, looked up)
# chain: MSVAAARSSAVKVDWGKIVSSLGLTGATVSSLQAFRKRHEEAKKNAYELQNQPTTVDFAHYRKVLKNQKVVDEIEQHFKSFKPVTYDVSKQLKTIDAFEAKAIEDAKATEGKVNQEIGDLQKTLENIESARPFDQLSVDDVFKARPDLEKKIEEMVKKGRWSVPGYNEKFGSVVLM
# notes: peripheral stalk subunit d of the mitochondrial F1Fo-ATP synthase, Yarrowia lipolytica; also called d subunit; source: endogenous, purified from Y. lipolytica mitochondria as part of 2YLF1Fo
# B5: Y. lipolytica F1Fo-ATP synthase subunit c (natural protein, Yarrowia lipolytica, UniProt Q37695 1-76, looked up)
# chain: MQLVLAGKYIGAGLASIGLVGAGIGIAIVFAALINGVSRNPALKGQLFTYSILGFALSEATGLFALMIAFLLLYAV
# notes: subunit c (subunit 9) of the mitochondrial F1Fo-ATP synthase, Yarrowia lipolytica; mitochondrially encoded; ten copies form the rotor ring; also called c subunit; c-ring; source: endogenous, purified from Y. lipolytica mitochondria as part of 2YLF1Fo and the YLF1c10 subcomplex
# B6: Y. lipolytica F1Fo-ATP synthase subunit 8 (natural protein, Yarrowia lipolytica, UniProt Q36257 1-48, looked up)
# chain: MPQLVPFYFTNQIFYGFASLSVIVYLFSIYILPHYLEIYVTRIFITKT
# notes: subunit 8 of the mitochondrial F1Fo-ATP synthase, Yarrowia lipolytica; 48 residues; N-terminal MPQL motif, trans-membrane helix ended by Pro33; mitochondrially encoded; also called A6L in human; source: endogenous, purified from Y. lipolytica mitochondria as part of 2YLF1Fo
# B7: Y. lipolytica F1Fo-ATP synthase subunit f (natural protein, Yarrowia lipolytica, UniProt Q6C9E6 7-103, looked up)
# chain: LSTLIPPKVASPATLHGAPNAKRMADVVSFYKALPQGAAPALPKTANPFKLYYRKYFHPKSGKASGAPLLHLILGIFLFGYISDYQFHLKHHKNGAH
# notes: subunit f of the mitochondrial F1Fo-ATP synthase, Yarrowia lipolytica; nuclear-encoded; in yeast a 100-residue subunit with a hydrophilic N-terminal domain and a predicted C-terminal trans-membrane helix; source: endogenous, purified from Y. lipolytica mitochondria as part of 2YLF1Fo
# B8: Y. lipolytica F1Fo-ATP synthase subunit γ (natural protein, Yarrowia lipolytica, UniProt Q6C338 22-293, looked up)
# chain: ATLREIEMRLKSIKNIEKITNTMKIVASTKLGKAQRAMATSKVYNEASEKVFENSETAVPENIEKRLWVVVSSDKGLCGSIHSQLARTVRRKLLDFESGEKLIDIVAVGEKIKAQLGRSNPEQMRLSFGGTGKEAPTFEEAAHIADEILALDTQYDDIEIVYNKVLSGISFEPIMKESYSAKAIEDAPKFGQYELEDDVVKNLADFSLANTIYAAMAEGHAAEISARRNAMDNASKNASDMINKYSILYNRTRQAVITNELVDIITGASSLE
# notes: subunit γ of the mitochondrial F1Fo-ATP synthase, Yarrowia lipolytica; also called central γ subunit; source: endogenous, purified from Y. lipolytica mitochondria as part of the YLF1c10 subcomplex (from 1YLF1Fo)
# Key:
# [1] = molecular target: T3, Y. lipolytica F1Fo-ATP synthase subunit α (Yarrowia lipolytica, UniProt Q6C326 25-536); assay: cryo-EM structure; single-particle cryo-EM of the purified dimer 2YLF1Fo; C2 symmetry imposed; 7.8 Å overall, 6.9 Å for F1 and 6.2 Å for the Fo dimer after masking; fitted with the YLF1c10 X-ray structure and homology models of the peripheral stalk; details: both partners purified
# T3 construct: subunit α of the mitochondrial F1Fo-ATP synthase, Yarrowia lipolytica; three copies in each F1 head, in the states αE, αTP and αDP; also called αE; αTP; source: endogenous, purified from Y. lipolytica mitochondria as part of 2YLF1Fo, 1YLF1Fo and the YLF1c10 subcomplex
# T3 sequence (Q6C326 25-536): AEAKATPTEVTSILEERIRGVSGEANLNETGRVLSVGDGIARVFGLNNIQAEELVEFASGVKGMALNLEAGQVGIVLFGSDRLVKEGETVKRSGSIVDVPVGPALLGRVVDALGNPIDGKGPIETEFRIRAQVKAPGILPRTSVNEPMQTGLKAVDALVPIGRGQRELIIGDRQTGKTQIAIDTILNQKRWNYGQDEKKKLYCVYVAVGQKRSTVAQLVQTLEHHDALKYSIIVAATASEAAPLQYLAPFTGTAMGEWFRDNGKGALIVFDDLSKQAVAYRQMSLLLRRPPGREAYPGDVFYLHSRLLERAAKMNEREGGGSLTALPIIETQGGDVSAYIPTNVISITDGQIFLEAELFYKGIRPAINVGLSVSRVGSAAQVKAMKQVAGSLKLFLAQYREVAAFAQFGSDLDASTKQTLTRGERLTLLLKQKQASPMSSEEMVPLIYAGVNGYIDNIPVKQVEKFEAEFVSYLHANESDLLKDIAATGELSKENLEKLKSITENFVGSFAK
# [2] = molecular target: T1, e/g heterodimer of the Y. lipolytica …; assay: as above; details: both partners purified
# [3] = molecular target: the molecule itself; assay: crystal structure; YLF1c10 subcomplex crystallised from the 1YLF1Fo complex without added nucleotides or inhibitors; 3.5 Å; molecular replacement with a model based on S. cerevisiae F1c10
# [4] = molecular target: T2, Y. lipolytica F1Fo-ATP synthase subunit …; assay: cryo-EM structure; single-particle cryo-EM of the purified dimer 2YLF1Fo; C2 symmetry imposed; 7.8 Å overall, 6.9 Å for F1 and 6.2 Å for the Fo dimer after masking; fitted with the YLF1c10 X-ray structure and homology models of the peripheral stalk; details: both partners purified
# [5] = molecular target: the molecule itself; assay: as above
# [6] = molecular target: T3, Y. lipolytica F1Fo-ATP synthase subunit …; assay: crystal structure; YLF1c10 subcomplex crystallised from the 1YLF1Fo complex without added nucleotides or inhibitors; 3.5 Å; molecular replacement with a model based on S. cerevisiae F1c10; details: both partners purified
binder,measurement,setting,value
B1,binding result,[1],binds
B2,binding result,[1],binds
same,binding result,[2],binds
B3,binding result,[1],binds
B4,binding result,[1],binds
B5,stoichiometry N,[3],10
same,binding result,[4],binds
B6,binding result,[4],binds
B7,binding result,[5],binds
B8,binding result,[6],binds
